Source: US20240368281A1 (INNATE PHARMA, published 2024)

Experiments:
[1] = molecular target: T1, single-chain NKG2A-CD94-mFc construct (human, UniProt Q13241 32-179, limits assumed); assay: SPR, Biacore T100; antigen amine-coupled to a CM5 chip, antibody injected at 0.157-2.5 nM
T1 construct: The order here follows the printed name only; also called recombinant NKG2A; not shown: mouse Fc (mFc)
Method: Heavy chain frameworks included “VH1” based on VH1_18/JH6; “VH5” based on VH5_a; “VH6” based on VH5_51; “VH7” based on VH1_f; and “VH8” based on VH1_46, all with a JH6 J-segment. The antigen-binding properties were analyzed on a Biacore T100 (Biacore AB, Uppsala, Sweden). The antigen was in the form of a single-chain NKG2A-CD94-mFc construct was covalently immobilized on the sensor CM5 chip (Biacore AB, Uppsala, Sweden) via amine groups using 1-ethyl-3-(3-dimethylaminopropyl) carbodiimide hydrochloride (EDC) and N-hydroxysuccinimide (NHS). The immobilization level was targeted at 300 RU. Z270 antibody variants were diluted to a concentration series (0.157, 0.313, 0.625, 1.25, 2.5 nM) in the running buffer HBS-EP (10 mM HEPES pH 7.4, 150 mM NaCl, 3 mM EDTA, 0.005% (v/v) Tween-20). All the samples were then injected over the immobilized antigen for 2 min at the flow rate of 40 ul/min. Subsequently, the running buffer was injected for 3 min at 40 ul/min for antibody dissociation analysis. After each run, the regeneration buffer (10 mM NaOH, 500 mM NaCl) was injected (30 seconds, 10 ul/min) to completely strip the remaining antibodies off the antigen. Data were evaluated with Biacore T100 evaluation software.

[2] = molecular target: T2, CD94/NKG2A on the cell surface (human, UniProt Q13241 1-179); assay: flow cytometry (MESF), titration in human whole blood, gated on NKG2A+ lymphocytes
T2 construct: whole, on cells; also called Ba/F3-CD94/NKG2A; NKG2A+ cells
Text: The affinity and total number of receptors may impact both pharmacokinetics (PK) and pharmacodynamics (PD) of the mAb in humans. […] Human whole blood was collected from each donor and processed immediately.

[3] = molecular target: T2, CD94/NKG2A on the cell surface; assay: cell-based or functional assay
[4] = molecular target: T2, CD94/NKG2A on the cell surface; assay: flow cytometry, titration on purified human NK cells; four-parameter fit, median of 5 donors
Method: Purified NK cells were prepared from frozen PBMC: Human NK purification with Stem Sep system, and cultured O/N in complete medium supplemented with 10 IU/ml recombinant IL-2. PBMC were prepared from collected blood. Blood was qualified for transfusion, donors were thus anonymous and supposedly healthy. PBMC were prepared, aliquoted and stored in nitrogen tanks prior to the study.
Calculations of Kd for receptor saturation and EC₅₀ for CD107 mobilization were performed in GraphPad Prism software using a non-linear regression fit with four parameters.

T1 sequence (Q13241 other isoform, or with tags, fused parts or gaps limits assumed): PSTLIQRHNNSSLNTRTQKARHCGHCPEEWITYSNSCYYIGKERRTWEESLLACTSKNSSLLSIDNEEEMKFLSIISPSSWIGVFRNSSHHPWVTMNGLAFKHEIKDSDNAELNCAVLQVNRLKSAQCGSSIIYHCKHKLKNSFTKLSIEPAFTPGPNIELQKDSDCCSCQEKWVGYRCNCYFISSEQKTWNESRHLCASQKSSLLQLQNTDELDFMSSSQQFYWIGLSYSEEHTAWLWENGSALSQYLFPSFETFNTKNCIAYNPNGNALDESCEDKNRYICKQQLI
T2 sequence (chain, as listed by the source limits assumed, chain 1 of 2): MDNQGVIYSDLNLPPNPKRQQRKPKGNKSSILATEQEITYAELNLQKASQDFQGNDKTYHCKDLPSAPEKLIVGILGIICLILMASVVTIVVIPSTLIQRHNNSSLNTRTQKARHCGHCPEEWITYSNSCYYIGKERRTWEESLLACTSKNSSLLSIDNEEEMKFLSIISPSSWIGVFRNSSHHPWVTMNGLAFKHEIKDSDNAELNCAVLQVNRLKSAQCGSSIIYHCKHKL
T2 sequence (Q13241 whole entry, chain 2 of 2): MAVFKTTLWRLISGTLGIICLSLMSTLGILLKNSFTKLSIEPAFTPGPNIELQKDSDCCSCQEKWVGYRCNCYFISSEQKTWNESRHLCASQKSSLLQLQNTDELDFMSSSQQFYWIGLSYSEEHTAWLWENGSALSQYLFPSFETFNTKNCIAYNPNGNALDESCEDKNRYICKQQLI
T2 sequence (chain, as listed by the source limits assumed, chain 1 of 2): as the sequence (chain, as listed by the source limits assumed, chain 1 of 2) above
T2 sequence (Q13241 whole entry, chain 2 of 2, the tested form may be a part): as the sequence (Q13241 whole entry, chain 2 of 2) above

Kd [1]: 66.5 pM | koff [1]: 0.000498 s⁻¹ | kon [1]: 7.49e+06 M⁻¹ s⁻¹ | EC50 [2]: ~4 ng/mL | KD for full receptor occupancy (the EC100) [2]: ~100 ng/mL | Kd [2]: ~4 ng/mL | EC50 concentration in the CD107 mobilization assay (purified NK cells against autologous SEB blasts) [3]: ~400 ng/ml | EC50 for CD107 mobilization on K562-HLA-E transfectants [3]: 4100 ng/mL | median EC50 for CD107 mobilization (autologous SEB blasts) [3]: 0.4 µg/ml | Kd [4]: 5 ng/mL
B1: humZ270VL1/VH1 (antibody, human IgG4 S228P, kappa, V domains shown)
VH: QVQLVQSGAEVKKPGASVKVSCKASGYTFTSYWMNWVRQAPGQGLEWMGRIDPYDSETHYAQKLQGRVTMTTDTSTSTAYMELRSLRSDDTAVYYCARGGYDFDVGTLYWFFDVWGQGTTVTVSS
VL: DIQMTQSPSSLSASVGDRVTITCRASENIYSYLAWYQQKPGKAPKLLIYNAKTLAEGVPSRFSGSGSGTDFTLTISSLQPEDFATYYCQHHYGTPRTFGGGTKVEIKR
notes: also called humanized Z270 VH1; humZ270 VH1
